# Assay results as given in patent publication US20170157251A1, “Bi-Specific Monovalent Diabodies That are Capable of Binding CD19 and CD3, and Uses Thereof” (MacroGenics, Inc., priority 2015, published 2017).
# Legend:
# [1] = tested on: cynomolgus monkey blood leukocytes; test: Flow cytometry binding to cynomolgus monkey blood leukocytes (B and T cells); conditions: 0.005 to 80 nM
# Protocol: (§1) Following incubation, binding to leukocytes was detected using a biotinylated anti-E-coil/K-coil (EK) mAb, which recognizes the EK coil heterodimerization region of the DART proteins and streptavidin-PE. […] Similarly, CD20 was used as a B cell marker instead of CD19. Therefore, in this study, the CD4+ and CD8+ gated events represent the T cell population and CD20+ gated events represent the B cell population.
# human blood leukocytes = test: Flow cytometry binding to human blood leukocytes (B and T cells); conditions: 0.005 to 80 nM
# Protocol: as §1
molecule,measurement,setting,value
"Control DART 2: control DART capable of binding to fluorescein and CD19 (protein, Amino Acid Sequence of the First Polypeptide Chain of Control DART 2; Amino Acid Sequence of the Second Polypeptide Chain of Control DART 2) chain 1: ENVLTQSPATLSVTPGEKATITCRASQSVSYMHWYQQKPGQAPRLLIYDASNRASGVPSRFSGSGSGTDHTLTISSLEAEDAATYYCFQGSVYPFTFGQGTKLEIKGGGSGGGGEVKLDETGGGLVQPGRPMKLSCVASGFTFSDYWMNWVRQSPEKGLEWVAQIRNKPYNYETYYSDSVKGRFTISRDDSKSSVYLQMNNLRVEDMGIYYCTGSYYGMDYWGQGTSVTVSSASTKGEVAACEKEVAALEKEVAALEKEVAALEKGGGDKTHTCPPCPAPEAAGGPSVFLFPPKPKDTLMISRTPEVTCVVVDVSHEDPEVKFNWYVDGVEVHNAKTKPREEQYNSTYRVVSVLTVLHQDWLNGKEYKCKVSNKALPAPIEKTISKAKGQPREPQVYTLPPSREEMTKNQVSLWCLVKGFYPSDIAVEWESNGQPENNYKTTPPVLDSDGSFFLYSKLTVDKSRWQQGNVFSCSVMHEALHNHYTQKSLSLSPGK chain 2: QAVVTQEPSLTVSPGGTVTLTCRSSTGAVTTSNYANWVQQKPGQAPRGLIGGTNKRAPWTPARFSGSLLGGKAALTITGAQAEDEADYYCALWYSNLWVFGGGTKLTVLGGGGSGGGGEVKLDETGGGLVQPGRPMKLSCVASGFTFSDYWMNWVRQSPEKGLEWVAQIRNKPYNYETYYSDSVKGRFTISRDDSKSSVYLQMNNLRVEDMGIYYCTGSYYGMDYWGQGTSVTVSSASTKGKVAACKEKVAALKEKVAALKEKVAALKE",binding to B cells (CD20+) and T cells (CD4+ and CD8+),[1],only mono-specific binding to B cells
same,binding to B cells (CD20+) and T cells (CD4+ and CD8+),human blood leukocytes,only mono-specific binding to B cells
